Drawing on PMC3564804, this text covers binding signal (fluorescence ratio) for two sequences.

Data set [1] deals with DS-PrPRes (Gdn-HCl treated PrPRes) (UniProt P04156).
In a further data set the target is PrPRes, native state (UniProt P04156).

Read-outs that look alike come from different tables or passages of the source.

Regarding CTTACGGTGGGGCAATT [Apt1], the binding signal (fluorescence ratio) in data set [1] (5'-NH2) came to 4.74; in the data set with PrPRes, native state (5'-NH2) it was 1.69.

On to “GTTTTGTTACAGTTCGTTTCTTTTCCCTGTCTTGTTTTGTTGTCT [Apt2]”, for which the binding signal (fluorescence ratio) in data set [1] (5'-biotin) was 4.74; with PrPRes, native state (5'-biotin), 1.69.
